Results taken from article PMC4238058, “Phase transitions of multivalent proteins can promote clustering of membrane receptors” (eLife, 2014).

Key:
[1] = biological target: T1, Nck (human, WT, residues 1-377) (human); assay: ITC; Nck (150 uM) in the syringe titrated into 5 uM p-Nephrin (3pY) or p-TIR (3pY); 25 mM Hepes pH 7.5, 150 mM NaCl, 1 mM MgCl2, 2 mM TCEP; three-site binding model with a single affinity for Nck (NITPIC, Sedphat); the constant is that of one pTyr site; conditions: both partners purified
T1 construct: two extra N-terminal residues printed before Met1; Nck, human, WT, residues 1-377; source: E. coli BL21(DE3)T1R, purified (glutathione sepharose, TEV on beads, Source 15Q, Source 15S, SD75)

[2] = biological target: T2, Nck (cysteine-modified; human, residues 1-377, C139S, C232A, C266S, C340S), fluorophore-labelled (human, C139S (stands in the printed letters) | C232A (stands in the printed letters) | …, maleimide Alexa568 (imaging of association and three color imaging) or Alexa488 (FRAP) on cysteine); assay: fluorescence (TIRF) microscopy of recruitment to a supported lipid bilayer; His8-p-Nephrin Alexa488 attached to a DOPC bilayer with 1% Ni2+-NTA DOGS; 1 uM Nck Alexa568 alone in solution; 25 mM Hepes pH 7.5, 150 mM NaCl, 1 mM MgCl2, 1 mM BME, 0.1% BSA; conditions: both partners purified
T2 construct: extra N-terminal residues printed before Met1, with the only cysteine left in the chain; Nck, human, residues 1-377 with C139S, C232A, C266S, C340S; The methods tell the expression and purification for GST-Nck; that the cysteine-modified form was made the same way is surmised; also called Nck Alexa568; Nck Alexa488; source: E. coli BL21(DE3)T1R, purified; labelled with a maleimide-conjugated …

Binder | Kd [1] | binding result [2]
triply phosphorylated His8-tagged Nephrin cytoplasmic tail (amino acids 1174-1223, Y1183F, Y1210F; pTyr1176, pTyr1193, pTyr1217) (domain or fragment, human, phosphotyrosine at Tyr1176, Tyr1193 and Tyr1217; maleimide Alexa488 on the single cysteine of the linker (bilayer experiments), N-terminal stretch as printed: holds the His8 tag named under tags and the (Gly-Gly-Ser)5 linker with the cysteine that is labelled; Nephrin, human, cytoplasmic tail residues 1174-1223 with Y1183F and Y1210F; also called p-Nephrin; Nephrin3Y (before phosphorylation); source: E. coli BL21(DE3)T1R, purified (Ni-NTA, Source 15Q, SD200); phosphorylated with Lck kinase and purified again (Source 15Q, …)) GGSLEHHHHHHHHGGSCGGSGGSGGSGGSHLYDEVERTFPPSGAWGPLYDEVQMGPWDLHWPEDTFQDPRGIYDQVAGD | 370 nM | binds
triply phosphorylated TIR3Y (His8-tagged human Nephrin tail with its pTyr sites replaced by the pTyr motif of EPEC Tir) (domain or fragment, phosphotyrosine in each of the three Tir motifs (triply phosphorylated); fluorescent in the bilayer experiments, N-terminal stretch as printed: holds the His8 tag named under tags, the Gly-Gly-Ser linker with the cysteine, and HM before the first Tir motif; Nephrin, human, stretch between the first and second pTyr sites; Nephrin, human, stretch between the second and third pTyr sites, with Phe at 1210 as in Nephrin3Y; also called p-TIR; p-TIR (3pY); source: E. coli BL21(DE3)T1R, purified (told for …)) GGSLEHHHHHHHHGGSCGGSGGSGGSGGSHMHIYDEVAADPPPSGAWGHIYDEVAADPWDLHWPEDTFQDPRHIYDEVAADP | 40 nM | 
